# According to publication PMC5374107, “Structure-Guided Identification of a Family of Dual Receptor-Binding PfEMP1 that Is Associated with Cerebral Malaria” (Cell Host & Microbe, 2017):
# Key:
# Details in all cases: both partners purified
# [1] = biological target: T1, Recombinant His-tagged EPCR (human, UniProt Q9UNN8 18-238, biotin (biotinylated by BirA)); experiment: SPR; Biacore T-200; biotinylated EPCR immobilized to 650 RU on a CAP chip (Biotin Capture Kit); head structures injected, two-fold dilutions 500 nM to 4 nM, 30 µL/min, 240 s association, 720 s dissociation; 10 mM HEPES pH 7.4, 300 mM NaCl, 0.05% Tween-20, 2 mg/ml ssDNA; one-site kinetic model
# T1 construct: endothelial protein C receptor (EPCR); also called endothelial protein C receptor; source: S2 cells, purified and biotinylated (Lau et al., 2015)
# T1 sequence: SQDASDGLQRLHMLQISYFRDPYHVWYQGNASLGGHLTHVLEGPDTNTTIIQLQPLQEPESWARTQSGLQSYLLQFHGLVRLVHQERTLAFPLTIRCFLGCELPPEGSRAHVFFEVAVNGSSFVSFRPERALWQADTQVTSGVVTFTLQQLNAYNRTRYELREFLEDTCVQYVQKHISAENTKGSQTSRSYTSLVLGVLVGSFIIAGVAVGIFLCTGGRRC
# ICAM-1D1D5-Fc = biological target: T2, ICAM-1D1D5-Fc (human); experiment: SPR; Biacore T-200; ICAM-1D1D5 Fc immobilized to 1,400 RU on a CM5 chip pre-coupled to Protein A; head structures injected, two-fold dilutions 4 nM to 500 nM, 40 µL/min, 240 s association, 600 s dissociation; 10 mM HEPES pH 8.0, 300 mM NaCl, 0.05% Tween-20; one-site kinetic model
# T2 construct: intercellular adhesion molecule 1 (ICAM-1), domains D1 to D5; captured on protein A by its Fc; also called ICAMD1D5; ICAM-1-Fc; source: HEK cells, recombinant (Bengtsson et al., 2013a)
# [2] = biological target: T1, Recombinant His-tagged EPCR; experiment: SPR; Biacore T-200; dual binding: ICAM-1D1D5 Fc immobilized (1,800, 2,100 or 1,500 RU) on Protein A CM5 chip, head structure injected at 250 nM for 240 s, then EPCR injected, two-fold dilutions 250 nM to 16 nM, 30 µL/min, 240 s association, 720 s dissociation; 10 mM HEPES pH 8.0, 300 mM NaCl, 0.05% Tween-20; one-site kinetic model
Binder,Kd [1],koff [1],kon [1],Kd (ICAM-1D1D5-Fc),koff (ICAM-1D1D5-Fc),kon (ICAM-1D1D5-Fc),Kd [2],koff [2],kon [2]
PF11_0521 head structure (NTS-DBLα1.7-CIDRα1.4-DBLβ3) (domain or fragment) MGNAIPATPDPIFINESYKSARNVLENVARLIKAKATKDVKRHRNVLKGNLRNAKFYHPFSKERPYYKSACDLDYRFHSNIWSGDNTYRHPCAGRNRNRFSYEGEAECRISRITGNKTEHGACAPYRRRHLCDYIFHQVNDNYIKTSDDLLGNLLVTAKYEGESIVNSYANSGMFNVCTALARSFADIGDIIRGKDLYLGNGDYKEKVSNNLRAIFNKIYENLNDPKLKKHYQKDAPNYYKLRDDWWNANREDVWKALTCNAPYEAQYFIKPSDKEHSFSSEYCGHYKNGDPLTNLDYVPQFLRWFEEWAEEFCRIKKIKLENVKNACRDEKKRKYCSLNGFDCTQTIWKKKVFGRGNDCTNCSFKCFPYEIWLGNQREAFRKQKEKYAKEIEAYVTNRGIPKSSINNGYYKDFYNKLKEKTYNTVDEFINLLNEGRYCKKQKPEEENIDFIKTGEKGTFYRSDYCQVCPDCGVDCSSGTCIEKKDDINCGKKINYEPPHGVKPIDIIVLYSGNEEGEITKRLSEFCTDSSNNKGKNYEQWKCYYKNGDDNKCKMVKNSGNNITEEKIISFDEFFYVWVRKLLIDSIKWENELNNCIDNTSTHCNKECNKNCECFDKWVKKKEDEWKNVKNVFENKNGTSHNYYNKLNGLFKGFFFEVMDKLNKDETKWNKLIESLRTKIDSSKENIGTGNTQDTIKVLLDHLKETATICKDNNTNEACETSRNRKTNPCAKPHGKKLATVKQIAQYYKRKAYIQLNERGSRSALKGDASQGQYDRGGKADDFKTKLCEINEKHSNARSNSLNPCNGKDNNKVRFNVGTPWQSGEKIATATDVYLPPRRQHFCTSNLEYLINGGHQAILNVKNGKINHSFLGDVLLAAKYQAQHTMKDYKSKNDKEGICRAIRYSFADIGDIIKGTDLWDKDGGEIKTQNHLVTIFDKIKAQLPKDIKGKYTGTKHLELRKDWWEANRDQVWKAMQCGNDNPCSGESDHTPLHDYIPQRLRWMTEWAEWYCKEQSRLYDKLKVCEECMRKGESCTKGSGECATCKEACEEYNKEIKKWEQQWDAISYKYLMLYAKARITAINGGPGYYNTEVQEEDKPVVDFLYNLYLQNGGKKGPPPDTHRVKALIARVKRDAARNRVKRADGSSATRVTATTTITPYSTAAGYIHQEAHIGDCQKQTQFCKNKNGSDVSDTEADPTYAFRDKPHDHDTACKC,1.18 nM,4.5e-05 s⁻¹,38100 M⁻¹ s⁻¹,2.33 nM,5.41e-05 s⁻¹,23200 M⁻¹ s⁻¹,,,
ICAM-1D1D5-Fc::PF11_0521 head structure complex (complex) chain 1: QTSVSPSKVILPRGGSVLVTCSTSCDQPKLLGIETPLPKKELLLPGNNRKVYELSNVQEDSQPMCYSNCPDGQSTAKTFLTVYWTPERVELAPLPSWQPVGKNLTLRCQVEGGAPRANLTVVLLRGEKELKREPAVGEPAEVTTTVLVRRDHHGANFSCRTELDLRPQGLELFENTSAPYQLQTFVLPATPPQLVSPRVLEVDTQGTVVCSLDGLFPVSEAQVHLALGDQRLNPTVTYGNDSFSAKASVSVTAEDEGTQRLTCAVILGNQSQETLQTVTIYSFPAPNVILTKPEVSEGTEVTVKCEAHPRAKVTLNGVPAQPLGPRAQLLLKATPEDNGRSFSCSATLEVAGQLIHKNQTRELRVLYGPRLDERDCPGNWTWPENSQQTPMCQAWGNPLPELKCLKDGTFPLPIGESVTVTRDLEGTYLCRARSTQGEVTRKVTVNVLSPRYE chain 2: MGNAIPATPDPIFINESYKSARNVLENVARLIKAKATKDVKRHRNVLKGNLRNAKFYHPFSKERPYYKSACDLDYRFHSNIWSGDNTYRHPCAGRNRNRFSYEGEAECRISRITGNKTEHGACAPYRRRHLCDYIFHQVNDNYIKTSDDLLGNLLVTAKYEGESIVNSYANSGMFNVCTALARSFADIGDIIRGKDLYLGNGDYKEKVSNNLRAIFNKIYENLNDPKLKKHYQKDAPNYYKLRDDWWNANREDVWKALTCNAPYEAQYFIKPSDKEHSFSSEYCGHYKNGDPLTNLDYVPQFLRWFEEWAEEFCRIKKIKLENVKNACRDEKKRKYCSLNGFDCTQTIWKKKVFGRGNDCTNCSFKCFPYEIWLGNQREAFRKQKEKYAKEIEAYVTNRGIPKSSINNGYYKDFYNKLKEKTYNTVDEFINLLNEGRYCKKQKPEEENIDFIKTGEKGTFYRSDYCQVCPDCGVDCSSGTCIEKKDDINCGKKINYEPPHGVKPIDIIVLYSGNEEGEITKRLSEFCTDSSNNKGKNYEQWKCYYKNGDDNKCKMVKNSGNNITEEKIISFDEFFYVWVRKLLIDSIKWENELNNCIDNTSTHCNKECNKNCECFDKWVKKKEDEWKNVKNVFENKNGTSHNYYNKLNGLFKGFFFEVMDKLNKDETKWNKLIESLRTKIDSSKENIGTGNTQDTIKVLLDHLKETATICKDNNTNEACETSRNRKTNPCAKPHGKKLATVKQIAQYYKRKAYIQLNERGSRSALKGDASQGQYDRGGKADDFKTKLCEINEKHSNARSNSLNPCNGKDNNKVRFNVGTPWQSGEKIATATDVYLPPRRQHFCTSNLEYLINGGHQAILNVKNGKINHSFLGDVLLAAKYQAQHTMKDYKSKNDKEGICRAIRYSFADIGDIIKGTDLWDKDGGEIKTQNHLVTIFDKIKAQLPKDIKGKYTGTKHLELRKDWWEANRDQVWKAMQCGNDNPCSGESDHTPLHDYIPQRLRWMTEWAEWYCKEQSRLYDKLKVCEECMRKGESCTKGSGECATCKEACEEYNKEIKKWEQQWDAISYKYLMLYAKARITAINGGPGYYNTEVQEEDKPVVDFLYNLYLQNGGKKGPPPDTHRVKALIARVKRDAARNRVKRADGSSATRVTATTTITPYSTAAGYIHQEAHIGDCQKQTQFCKNKNGSDVSDTEADPTYAFRDKPHDHDTACKC,,,,,,,11.4 nM,0.000195 s⁻¹,17200 M⁻¹ s⁻¹
